In general, EC50 refers to the midpoint of the concentration-response curve. A low value points to greater potency.

Residue numbers refer to the chain shown, from its start.

Sequences and labels used below:
B1: IL-P5-C06 (antibody, V domains shown)
VH: QVQLQQSGPELVRPGVSVKISCKGSGYTFTDYAIHWAKQGHAKSLEWIGIINTYNGNSNYNQNFKGKATMTVDKSSSTAYMELTRLTSEDSAIYYCARNYGSSFNWYFDVWGQGTTLTVSS
VL: DIVLTQSPTTMAASPGEKITITCSASSSISSNYLHWYQQKPGFSPKLLIYSTSNLASGVPARFSGSGSGTSYSLTISSVEAEDAATYYCQQYSGYPLTFGAGTKLELK
B2: IL-P5-B01 (antibody, V domains shown)
VH: EVQLQESGPSLVKPSQTLSLTCSVTGDSITSGSWNWIRKFPGNKLEYMGYISYSGSIYYNPSLKSRISITRDTSKNQYYLQLNSVTTEDTATYYCARGNPAWFAYWGQGTLVTVSA
VL: DIVMTQSQKFMSTSVGDRVSVTCKASQNVGTNVAWYQQKPGQSPKALIYSASYRYSGVPDRFTGSGSGTDFTLTISNVQSEDLAEYFCQQYNSYPYTFGGGTKLEIK
B3: IL-P6-D06 (antibody, V domains shown)
VH: QVQLQQSGPELVRPGVSVKISCKGSGYTFTDYAIHWVKQSHAKSLEWIGVINTYSGNTNYNQKFKGRATMTVDKSSSTAYMELARLTSEDSAIYFCARGVTYGSGYPYWYFDVWGAGTTVTVSS
VL: B2 VL
B4: IL-P7-A06 (antibody, V domains shown)
VH: QVQLQQSGPEVVRPGVSVKISCKGSGYTFTDYAMHWVKQSHAKSLEWIGIINTYNGNTNYNQKFKGKATMTVDKSSSTAYMEFARLTSEDSAIYYCARSRGPWDRYFDVWGAGTTVTVSS
VL: B2 VL with N32A, A46L, Y53N, S56T, V78M, E85D, N92S, Y96F, G100S
B5: IL-P6-C11 (antibody, V domains shown)
VH: EVQLQQSGPELVKPGASVRISCKTSGYTFTDYVIHWVKQNHGGSLEWIGGINRDSGGTTYNQKFQDKVTLTVDKSSNTAYMELRSLTSEDSAVYYCTKWKFPWYFDVWGAGTTVTVSS
VL: DIELTQSPAIMSASPGEKVTMTCSASSSISYMHWYQQKPGTSPKRWIYDTSKLASGVPARFSGSGSGTSYSLTISRVEAEDAATYYCQQWSSNPLTFGSGTKLEIK
B6: IL-P6-B07 (antibody, V domains shown)
VH: B5 VH with D31E
VL: B5 VL with E3V, I29V, P39S, R76S, V77M, S99A, I105L
B7: IL-P6-C08 (antibody, V domains shown)
VH: EVKLVESGGDLVKPGGSLKLSCAASGFTFSSYGMSWVRQTSDKRLEWVATISGGGRYTYYPDSVKGRFTISRDSSKNTLYLQMSSLKSEDTAMYYCVRHYDGYLDYWGLGTTLTVSS
VL: DIQMIQSPASLSASVGETVTITCRASENIYSYLAWYQQKQGKSPQLLVYNAKTLAEGVPSRFSGSGSGTQFSLKINSLQPEDFGSYYCQHHYGTPPYTFGGGTKLEIK
B8: IL-P7-C05 (antibody, V domains shown)
VH: EVQLVESGGDLVQPGGSLKLSCAASGFTFSSYGMSWVRQTPDKRLELVATINSNGGTTYYPDSVKGRFTISRDNAKHTLYLQMSSLKSEDTAMYYCTRNEEFRRGLAYWGQGTLVTVSA
VL: DIQMIQSPASLSVSVGETVTITCRASENIYSNLAWYQQKQGKSPQLLVYAATNLADGVPSRFSGSGSGTQYSLKINSLQSEDFGSYYCQHFWGTPPWTFGGGTKLEIK
B9: IL-P5-C06-H2L2 (antibody, V domains shown)
VH: QVQLVQSGAEVKKPGASVKVSCKGSGYTFTDYAIHWGRQAPGQGLEWIGIINTYNGNSNYAQKFQGRATMTRDTSTSTAYMELSRLRSEDTAVYYCARNYGSSFNWYFDVWGQGTTVTVSS
VL: DIQLTQSPSSLSASVGDRITITCRASSSISSNYLHWYQQKPGKAPKLLIYSTSNLASGVPSRFSGSGSGTDFTLTISSVQPEDFATYYCQQYSGYPLTFGQGTKLELK
B10: IL-P5-C06-H1L4 (antibody, V domains shown)
VH: B9 VH with G37A, R72V, T74K
VL: B9 VL with L4M, I19V, A56Q, V79L
B11: IL-P5-C06-H3L4 (antibody, V domains shown)
VH: B9 VH with G24A, I48M, A68V
VL: B9 VL with L4M, I19V, A56Q, V79L
B12: IL-P5-C06-H2L4 (antibody, V domains shown)
VH: B9 VH
VL: B9 VL with L4M, I19V, A56Q, V79L
B13: IL-P5-C06-H1L1 (antibody, V domains shown)
VH: B9 VH with G37A, R72V, T74K
VL: B9 VL with L11M, A44S, F72Y
B14: IL-P5-C06-H3L3 (antibody, V domains shown)
VH: B9 VH with G24A, I48M, A68V
VL: B9 VL with I19V, V79L
B15: IL-P5-C06-H1L3 (antibody, V domains shown)
VH: B9 VH with G37A, R72V, T74K
VL: B9 VL with I19V, V79L
B16: IL-P5-C06-H2L3 (antibody, V domains shown)
VH: B9 VH
VL: B9 VL with I19V, V79L
B17: IL-P7-C05-H4L3 (antibody, V domains shown)
VH: EVQLVESGGGLVQPGGSLRLSCAASGFTFSSYAMSWVRQAPGKGLELVAAINSNGGSTYYADSVKGRFTISRDNAKNTLYLQMSSLRAEDTAVYYCTRNEEFRRGLAYWGQGTLVTVSS
VL: DIQMTQSPSSLSASVGDRVTITCRASENIYSNLAWYQQKPGKAPKLLIYAASNLQSGVPSRFSGSGSGTDYTLTISSLQPEDFATYYCQHFWGTPPWTFGQGTKLEIK
B18: IL-P7-C05-H3L1 (antibody, V domains shown)
VH: B17 VH with A33G
VL: B17 VL with I48V, S52T, Q55A, S56D
B19: IL-P7-C05-H3L3 (antibody, V domains shown)
VH: B17 VH with A33G
VL: B17 VL
B20: IL-P7-C05-H2L2 (antibody, V domains shown)
VH: B17 VH with A33G, A50T, S57T
VL: B17 VL with I48V, S52T
B21: IL-P7-C05-H4L1 (antibody, V domains shown)
VH: B17 VH
VL: B17 VL with I48V, S52T, Q55A, S56D
B22: IL-P7-C05-H2L1 (antibody, V domains shown)
VH: B17 VH with A33G, A50T, S57T
VL: B17 VL with I48V, S52T, Q55A, S56D
B23: IL-P7-C05-H1L1 (antibody, V domains shown)
VH: B17 VH with A33G, A50T, S57T, A61P, N77H
VL: B17 VL with I48V, S52T, Q55A, S56D

One experiment deals with Human B7-H3-his (human) (UniProt Q5ZPR3). Nature of the experiment: ELISA, antigen coated at 2 µg/mL. A general note: ELISA stands for enzyme-linked immunosorbent assay.
For B1, the EC50 is 0.177 µg/mL.
Same read-out and setting: for B2 the value was 0.137 µg/mL.
The same measure, in the same setting: for B3 the value was 0.174 µg/mL.
In turn, B4 registered an EC50 of 0.195 µg/mL.
On the same count and under the same terms, then B5, with 0.23 µg/mL.
Molecule B6 had an EC50 of 0.132 µg/mL.
The same measure, in the same setting: for B7 the value was 0.0424 µg/mL.
Still for that read-out and setting: then B8, with 0.0788 µg/mL.

For the next experiment the target is unchanged. Nature of the experiment: ELISA, human B7-H3 at protein level (second run).
Take B9: the EC50 turned out to be 0.147 µg/mL.
On the same count and under the same terms, for B10 the value was 0.237 µg/mL; for B11, 0.156 µg/mL.
As to B12, the EC50 stood at 0.223 µg/mL.
In turn, B13 came in with an EC50 of 0.206 µg/mL. This EC50 and that of the molecule before are within 1.5-fold of each other.
Same read-out and setting: for B14 the value was 0.151 µg/mL; for B15, 0.164 µg/mL; for B16, 0.151 µg/mL.
B1: the EC50 came out at 0.302 µg/mL.
The molecule B2 showed an EC50 of 0.248 µg/mL.
The same measure, in the same setting: then B3, with 0.233 µg/mL.
Still for that read-out and setting: for B4 the value was 0.172 µg/mL; for B5, 0.182 µg/mL; for B6, 0.194 µg/mL.
B17: the EC50 amounted to 0.0395 µg/mL.
The same measure, in the same setting: for B18 the value was 0.026 µg/mL; for B19, 0.071 µg/mL; for B20, 0.051 µg/mL.
Consider B21, for which the EC50 stood at 0.035 µg/mL.
The same measure, in the same setting: for B22 the value was 0.111 µg/mL; for B7, 0.088 µg/mL; for B8, 0.044 µg/mL.
The same measure, in the same setting: then B23, with 0.053 µg/mL.

These data come from patent publication US20230212294A1.
